The values below come from PMC2686680, “Chibby forms a homodimer through a heptad repeat of leucine residues in its C-terminal coiled-coil motif” (BMC Molecular Biology, 2009).

The data set concerns the molecule itself. Briefly: SEC; His-Cby purified from stable HEK293T on Superdex 75 FPLC, 20 mM Tris-HCl pH 8.0, 1.0 M NaCl, 1 mM EDTA, 2 mM DTT, 2 mM betaine-HCl, 0.02% Triton X-100, 5% glycerol; fractions blotted with anti-Cby.

B1: His-tagged Cby wild type (natural protein, human, UniProt Q9Y3M2 1-126, looked up)
chain: MPFFGNTFSPKKTPPRKSASLSNLHSLDRSTREVELGLEYGSPTMNLAGQSLKFENGQWIAETGVSGGVDRREVQRLRRRNQQLEEENNLLRLKVDILLDMLSESTAESHLMEKELDELRISRKRK
notes: Chibby (Cby), human, 126 amino acids; Cby cDNA in pcDNA4/HisMax A; the vector pcDNA4/HisMax A probably adds further N-terminal residues besides the His tag (surmise); also called His-Cby; His-CbyWT; source: transiently transfected for cross-linking), purified (nickel beads / Ni-NTA)
With B1, the “stoichiometry N” value was 2.
